The subject of assay [1] is tibialis anterior muscles of mdx mice. Nature of the assay: Intramuscular transfer of dystrophin plasmid pTG11025, dystrophin immunohistochemistry. In kind it is in vivo, mouse. The note with it: pTG11025 i.m. with adjuvant (IL-10 0.1 μg, DMSO 10% final, G-actin 10 μg), notexin 3 days before, 7 days after injection; mean +/- sem. As to the method: (§1) Plasmids are prepared according to Bischoff et al. (Analytical Biochemistry 254 (1997), 69-81). The tested interleukin-10s were mixed with the plasmid preparation (pTG11033: CMV promoter, β-globin intron, luciferase cassette; pTG11025: CMV promoter, β-globin intron, dystrophin cassette; both diluted in 0.9% NaCl), prior to intramuscular injection. 25 μg of plasmid are injected per muscle in 5 to 10 week-old C57BI/10 or mdx mice. The 2 tibialis anterior (right and left) muscles were injected (each muscle was considered as a sample, which means number of samples per condition=2×number of mice per condition).
(§2) One week after injection of the composition, mice were killed and the tibialis anterior muscles were retrieved and frozen. Based on the injected vector, either luciferase activity was determined in muscle extracts, or dystrophin expression was evaluated by immunohistochemistry.
Muscle samples were frozen in liquid nitrogen-cooled isopentane and stored at −80° C. […]
In a second experiment mdx mice were 3 times injected intramuscularly with pTG11025 (dystrophin) plus DMSO, G-actin and IL-10 after notexin-induced muscle regeneration. Plasmid-adjuvant injections were repeated 3 times in raw on a daily basis and dystrophin expression (immunohistochemistry) was evaluated 7 days after the last injection. […]

The subject of assay [2] is tibialis anterior muscles of C57BL/10 mice. As to the kind of experiment: Intramuscular transfection of luciferase plasmid pTG11033, luciferase activity of injected muscles. The note with it: IL-10 0.01 and 0.1 μg + 25 μg pTG11033 per muscle, dose-dependent. In kind it is in vivo, mouse. As to the method:
as §1, §2
Luciferase activity was quantified using a conventional measurement kit (Luciferase Assay System, Promega). […] Luciferase activity was expressed as number of RLU emitted per minute.
Proteins were measured on 10 μl samples using a VCA Protein Assay Kit (Pierce). […]
One week after injection of the vectors, the mice were killed and the tibialis anterior muscles were retrieved and frozen. Luciferase activity was determined on muscle extracts. […]

In the case of `C[S+](C)[O-]` [DMSO, dimethylsulfoxide], the “Number of dystrophin-positive fibers per cryosection” value in assay [1] is given as 37.8 +/− 5.5.

B1: IL-10: human recombinant IL-10 (Sigma) (protein, UniProt P22301 19-178, looked up)
Interleukin-10: SPGQGTQSENSCTHFPGNLPNMLRDLRDAFSRVKTFFQMKDQLDNLLLKESLLEDFKGYLGCQALSEMIQFYLEEVMPQAENQDPDIKAHVNSLGENLKTLRLRLRRCHRFLPCENKSKAVEQVKNAFNKLQEKGIYKAMSEFDIFINYIEAYMTMKIRN
As to B1, the “increase of luciferase expression” value in assay [2] worked out at 3 factor. Besides, in assay [1], the “Number of dystrophin-positive fibers per cryosection” value is given as 21.7 +/− 1.9.

Values taken from US6528312B1, “Use of G-actin for improving transfection of a polynucleotide into a cell” (Transgene S.A., priority 1998, dated 2003).
